The supplement of paper PMC9170038

What was measured:
MS2 coat protein [1] = test: apparent KD of MS2 coat protein, switch ON state; designed switch direction (-1 OFF switch, 1 ON switch): -1; higher = weaker reporter binding; conditions: FMN input: 0 or 200 uM; Eterna round: R93 (includes R88 designs)
In short: (§1)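 Apparent KD is reported per design as the median of normalised binding-curve fits across its clusters. The RNA switches were made by on-chip transcription from Illumina sequencing clusters. SNAP-549-labelled MS2 coat protein was then added in twofold steps (0.7 or 1.5 nM to 3 µM; 0.8–1.5 h to 10–20 min per step) in 100 mM Tris-HCl pH 7.5, 80 mM KCl, 4 mM MgCl2, without or with constant ligand.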

MS2 coat protein [2] = test: apparent KD of MS2 coat protein, switch OFF state (with FMN for OFF switches, without FMN for ON switches); designed switch direction (-1 OFF switch, 1 ON switch): -1; higher = weaker reporter binding; conditions: FMN input: 0 or 200 uM; Eterna round: R93 (includes R88 designs)
In short: as §1

Row | Sequence | apparent KD of MS2 coat protein (MS2 coat protein [1]) | apparent KD of MS2 coat protein (MS2 coat protein [2])
1 | AGCUAGUCAGGAUAUACGAACAUGUCGAAAGACGUGAAGGGACAUGAGGAUCACCCAUGUAGAAGGGACUAGCA [Mat - Exclusion 2 - JL mod - D1] | 0.0342 µM | 0.12 µM
2 | AGGAAACAUGAGGAUCACCCAUGUGAGGAUAUAGGAAAGAAAAGAAAAGAAAGAAGAAUUAGAAGGCACAAGAA [Djet] | 0.0205 µM | 0.0149 µM
3 | AGGAAACAUGAGGAUCACCCAUGUGAGGAUAUGAACGAAAAUAAAUAAAAAUAAAAGUUCAGAAGGUACAAAAA [66%, Wbt, 5] | 0.0236 µM | 0.0368 µM
4 | AGGAAACAUGAGGAUCACCCAUGUGAGGAUAUUCAAAAGAAAAGAAAAGAAAGAAGAAGAAGAAGGCACAAGAA [Khayu] | 0.0328 µM | 0.0335 µM
5 | AGGAAACAUGAGGAUCACCCAUGUGAGGAUAUUGAAAAGAAAAGAAAAGAAAGAAGAACAAGAAGGCACAAGAA [Tiu] | 0.0296 µM | 0.0315 µM
6 | AGGAAACAUGAGGAUCACCCAUGUUAGGAUAUGAACGAAAUAAAAUAAAAAUAAAAGUUCAGAAGGGACAAAAA [Mat - Exclusion 1 - Eli mod - D20] | 0.0249 µM | 0.0496 µM
7 | AGGGUACAUGAGGAUCACCCAUGUUAGGAUAUUGAAAAGAAAAGAAAAGAAAGAAGAACAAGAAGGGACAAGAA [Userkare] | 0.0565 µM | 0.0457 µM
8 | AGUAAACAUGAGGAUCACCCAUGUGAGGAUAUCGAAAAGAAAAGAAAAGAAAGAAGAAUGAGAAGGCACAAGAA [Huni] | 0.0333 µM | 0.037 µM
9 | AGUAACCAAGGAUAUACAAAACCUGUGAUCGAAUGGAUUUUACAUGAGGAUCACCCAUGUAGAAGGUGGAAAGG [Xeedce] | 0.0227 µM | 0.035 µM
10 | AGUAGAUCAGGAUAUACAUAAAUGAUAAUUAUGUAACUUUUACAUGAGGAUCACCCAUGUAGAAGGGAUCUACA [Ex2 Design 130: Not so Super Stable 18] | 0.0148 µM | 0.0158 µM
11 | AGUAGUACAGGAUAUACAUGAGGAUCACCCAUGUGAAAAAUAAGUGGCGUACCACAAAGUAGAAGGGUACUACA [Mat - Exclusion 3 - JL mod - D37] | 0.0299 µM | 0.141 µM
12 | AGUAUGCGAGGAUAUACAUGAGGAUCACCCAUGUGAGAGAUAAAAGUGAGAAAGACAUGUAGAAGGCGCGUACA [JL Lego Mod 24] | 0.0389 µM | 0.027 µM
13 | AGUCAUACAGGAUAUACAUGAGGAUCACCCAUGUAAAUCCUAAAAAAAUGAUCCUCAUGUAGAAGGGUAUGACA [EX3 221: Super Stable 21] | 0.0168 µM | 0.0144 µM
14 | AGUCAUACAGGAUAUACAUGAGGAUCACCCAUGUAUAUCCAAAAAAAAAAAUCCUCAUGUAGAAGGGUAUGACA [EX3 205: Super Stable 5] | 0.0171 µM | 0.0187 µM
15 | AGUCGGCGAGGAUAUACAUGAGGAUCACCCAUGUGAGAGAAUAUAGUGAGUUAGACAAGUAGAAGGCGCUGACA [JL Lego Mod 11] | 0.0432 µM | 0.135 µM
16 | AGUCGGCGAGGAUAUACAUGAGGAUCACCCAUGUGAGAGCUAAAAGUGAGUCAGAAAAGUAGAAGGCGCUGACA [JL Lego Mod 6] | 0.0965 µM | 0.0941 µM
17 | AGUGAGUCAGGAUAUGACUGAAGAAUAAAAGAAAUAACAAGUCAGAAGGGACAUGAGGAUCACCCAUGUACACA [May 59] | 0.0309 µM | 0.0207 µM
18 | AGUGAGUGAGGAUAUGAGUGAACAACAAAACAAAUAACGACUCAGAAGGCACAUGAGGAUCACCCAUGUACACA [May 68] | 0.024 µM | 0.0223 µM
19 | AGUUAGUCAGGAUAUGCGUGAAGAAUAAAAGAAAUAACAACGCAGAAGGGACAUGAGGAUCACCCAUGUAAACA [May 55] | 0.0342 µM | 0.0373 µM
20 | AGUUGGCGAGGAUAUACAUGAGGAUCACCCAUGUGAAAAAAGGGCUCGAAAGAGAAAAGUAGAAGGCGCUGACA [73%, Moding Norbert Elias, 7] | 0.0248 µM | 0.0984 µM
21 | AGUUGGCGAGGAUAUACAUGAGGAUCACCCAUGUGAAAUCGCGAAAAAAUAGGGAAAAGUAGAAGGCGCUGACA [73%, Moding Norbert Elias, 18] | 0.011 µM | 0.021 µM
22 | AGUUGGCGAGGAUAUACAUGAGGAUCACCCAUGUGAGAGAUAAAAGUGAGAAAGAAAAGUAGAAGGCGCUAACA [JL Lego Mod 20] | 0.0456 µM | 0.262 µM
23 | AGUUGGCGAGGAUAUACAUGAGGAUCACCCAUGUGAGAGUAAAAAGUGAGAAAGAGAAGUAGAAGGCGCUAACA [Ruby 53] | 0.0374 µM | 0.167 µM

Row | Sequence | apparent KD of MS2 coat protein (MS2 coat protein [1]) | apparent KD of MS2 coat protein (MS2 coat protein [2])
24 | AUAAGUCGAGGAUAUACGAAAUGCUAGCGAAAGCUAGCAUAACAUGAGGAUCACCCAUGUAGAAGGCGACAAUA [Tetraloop hairpin BlockHead... 61% 3] | 0.0229 µM | 0.0206 µM
25 | AUAGGGCUAGGAUAUACAUGAGGAUCACCCAUGUAAACAGAUAGAUCAAGGUAAACGAGUAGAAGGAGCAAUAA [JR_Exc003_Sub210] | 0.0195 µM | 0.0188 µM
26 | AUAGUACAUGAGGAUCACCCAUGUCAGGAUAUUCGAAAUGAAAAAAAAAAAAAGUGAAGGAGAAGGGACUAUAA [EX1 Malc#12] | 0.0215 µM | 0.0201 µM
27 | AUAGUACAUGAGGAUCACCCAUGUCAGGAUAUUCGAUAUGAAAAAAAAAAAAAGUUAAGGAGAAGGGACUAUAA [EX1 Malc#13] | 0.0261 µM | 0.0261 µM
28 | AUAGUACAUGAGGAUCACCCAUGUCAGGAUAUUGGAUAUGACAAAAAAAAAAAGUUAACGAGAAGGGACUAUAA [EX1 Malc#15] | 0.0312 µM | 0.0366 µM
29 | AUCAACCUAGGAUAUACAUGAGGAUCACCCAUGUACAGAUACAACAAGGGAAACACACGUAGAAGGAGGAAGAU [JR_Exc003_Sub1205] | 0.0244 µM | 0.0521 µM
30 | AUCAUGUAAGGAUAUACAAGAAAAGAAAAGAAAGAAAAGAAGUAGAAGGUACAUGAGGAUCACCCAUGUAAGAA [EteRNA is fun!] | 0.061 µM | 0.0315 µM
31 | AUCAUGUAAGGAUAUAUAAGAAAAGAAAAGAAAGAAAAGAAAUAGAAGGUACAUGAGGAUCACCCAUGUAAGAA [EteRNA is fun!] | 0.0308 µM | 0.0156 µM
32 | AUCAUGUAAGGAUAUGACUACAUAAAAAAAAAAAAAUGUAGUCAGAAGGUACAUGAGGAUCACCCAUGUACAAA [Mod of Brourd] | 0.0276 µM | 0.0294 µM
33 | AUCUCGUCAGGAUAUGACUACAUAAAAAAAAAAAAAUGUAGUCAGAAGGGACAUGAGGAUCACCCAUGUACCAA [HSL_Exclusion 4 64% 3] | 0.0219 µM | 0.0228 µM
34 | AUCUUGUCAGGAUAUGACUACAUAAAAAAAAAAAAAUGUAGUCAGAAGGGACAUGAGGAUCACCCAUGUACUAA [hsl_exclusion4] | 0.0419 µM | 0.0624 µM
35 | AUGGUAGGAGGAUAUACAUAGAUACAGAUACAUGUAGACGUACAUGAGGAUCACCCAUGUAGAAGGCCUAUAAA [Mat - Same state - Mayanna Mod - D150] | 0.0979 µM | 0.0823 µM
36 | CACGUACAUGAGGAUCACCCAUGUUAGGAUAUGCCGGGUAAGAGAAAACUAAAAACCCGUAGAAGGGACGAAAC [Bilbo Confounded 13 - Jieux - Exclusion 1] | 0.0233 µM | 0.0286 µM
37 | CAGUACUGAGGAUAUACAUGAGGAUCACCCAUGUGUAAAAGCUAGGAAACUAGCAAAUGUAGAAGGCAGUACUG [Ex3: 816] | 0.0138 µM | 0.0365 µM
38 | CAGUACUGAGGAUAUACAUGAGGAUCACCCAUGUGUUCCAGCUAGGAAACUAGCAAAAGUAGAAGGCAGUACUG [Ex3: 828] | 0.0246 µM | 0.343 µM
39 | CAGUACUGAGGAUAUACAUGAGGAUCACCCAUGUGUUCCAGCUAGGAAACUAGCACAUGUAGAAGGCAGUACUG [Ex3: 826] | 0.187 µM | 0.0168 µM
40 | CCAGGACAUGAGGAUCACCCAUGUGAGGAUAUCUGUAUUCAAUCCUCGGAUUGAAUACAGAGAAGGCACAUGGA [Ex1: 659] | 0.0386 µM | 0.0268 µM
41 | CCCAUGUCAGGAUAUCAGUAGUAAAAAAAAAAAAUUACUACUGAGAAGGGACAUGAGGAUCACCCAUGUCCAAA [EX4 316: Super Stable 16] | 0.0617 µM | 0.0387 µM
42 | CCCAUGUCAGGAUAUCAGUAGUAAAAAAAAAAAAUUACUACUGAGAAGGGACAUGAGGAUCACCCAUGUUCAAA [EX4 317: Super Stable 17] | 0.0334 µM | 0.0283 µM
43 | CCCUCACAUGAGGAUCACCCAUGUGAGGAUAUGCAUAAAAAAAAAAAAAAAAAAAAAUGCAGAAGGCACAUGAA [jn_irvington] | 0.013 µM | 0.0111 µM
44 | CCCUCACAUGAGGAUCACCCAUGUUAGGAUAUCUACCAGGAGCCUAAAAUGGCCCAACGGAGAAGGAACGUGCA [Arbire] | 0.0192 µM | 0.0169 µM
45 | CCUAUGUGAGGAUAUAGCCACAUUACGAAUAAGUAGUGUGGCUAGAAGGCACAUGAGGAUCACCCAUGUAUGGG [Exclusion 4.8 (GC closing FMN)] | 0.0299 µM | 0.0156 µM
